Molecular target: T1, RNase I, an RNase from E. coli (Promega Cat. #M4261) (E. coli, UniProt P21338 24-268)
T1 sequence (looked up): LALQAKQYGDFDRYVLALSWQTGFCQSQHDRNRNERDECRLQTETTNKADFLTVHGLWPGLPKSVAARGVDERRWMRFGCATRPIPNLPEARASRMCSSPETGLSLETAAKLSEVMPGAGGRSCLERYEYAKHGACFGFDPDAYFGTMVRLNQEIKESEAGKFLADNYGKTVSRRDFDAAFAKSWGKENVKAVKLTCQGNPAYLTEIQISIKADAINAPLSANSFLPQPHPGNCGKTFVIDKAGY
Test: cell-based or functional assay

B1: "RNasin Plus"-brand RNase inhibitor (recombinant rat-derived RNase inhibitor protein, Promega Pt # N261) (other, UniProt P29315 1-456, looked up)
chain: MSLDIQCEQLSDARWTELLPLIQQYQVVRLDDCGLTEVRCKDIRSAIQANPALTELSLRTNELGDAGVGLVLQGLQNPTCKIQKLSLQNCSLTEAGCGVLPDVLRSLSTLRELHLNDNPLGDEGLKLLCEGLRDPQCRLEKLQLEYCNLTATSCEPLASVLRVKPDFKELVLSNNDFHEAGIHTLCQGLKDSACQLESLKLENCGITSANCKDLCDVVASKASLQELDLGSNKLGNTGIAALCSGLLLPSCRLRTLWLWDCDVTAEGCKDLCRVLRAKQSLKELSLAGNELKDEGAQLLCESLLEPGCQLESLWVKTCSLTAASCPHFCSVLTKNRSLFELQMSSNPLGDSGVVELCKALGYPDTVLRVLWLGDCDVTDSGCSSLATVLLANRSLRELDLSNNCMGDNGVLQLLESLKQPSCILQQLVLYDIYWTDEVEDQLRALEEERPSLRIIS
% inhibition of RNase; RNasin Plus-brand inhibitor without DTT increased 10-fold (10×); 58° C.: 100%
